Molecular target: PML protein (UniProt P29590)
Test: co-immunoprecipitation (anti-HA IP, anti-PML immunoblot, densitometry)
Conditions: HepaRG cells transfected with 10 μg plasmid; lysates prepared 48 h posttransfection; two independent experiments; parent: est. 7.8; read off a plot

Sequence of UniProt P29590 (P29590 whole entry): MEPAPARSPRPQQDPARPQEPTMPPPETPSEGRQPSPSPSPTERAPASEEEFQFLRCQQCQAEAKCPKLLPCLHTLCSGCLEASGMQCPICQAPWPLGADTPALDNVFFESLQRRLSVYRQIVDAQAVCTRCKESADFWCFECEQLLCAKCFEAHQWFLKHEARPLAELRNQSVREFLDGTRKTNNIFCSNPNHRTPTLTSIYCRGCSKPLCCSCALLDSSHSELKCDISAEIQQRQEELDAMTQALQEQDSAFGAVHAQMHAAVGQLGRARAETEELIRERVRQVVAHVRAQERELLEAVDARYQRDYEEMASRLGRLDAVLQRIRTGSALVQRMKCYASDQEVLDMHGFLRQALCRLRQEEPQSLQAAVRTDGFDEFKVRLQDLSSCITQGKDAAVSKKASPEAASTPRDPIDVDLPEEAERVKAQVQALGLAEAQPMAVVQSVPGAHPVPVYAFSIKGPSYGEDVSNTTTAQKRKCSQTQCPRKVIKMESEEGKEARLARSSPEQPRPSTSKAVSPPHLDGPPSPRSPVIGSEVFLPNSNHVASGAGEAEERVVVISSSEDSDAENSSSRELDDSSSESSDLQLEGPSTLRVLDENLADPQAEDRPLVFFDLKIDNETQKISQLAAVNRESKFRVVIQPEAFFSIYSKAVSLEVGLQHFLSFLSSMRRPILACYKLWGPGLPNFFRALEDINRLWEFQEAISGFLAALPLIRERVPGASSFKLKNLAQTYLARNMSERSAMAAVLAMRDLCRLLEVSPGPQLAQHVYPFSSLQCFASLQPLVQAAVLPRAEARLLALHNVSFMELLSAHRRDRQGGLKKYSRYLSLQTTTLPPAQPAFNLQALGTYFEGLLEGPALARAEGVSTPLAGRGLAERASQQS

HA-tagged wild-type HBV core protein (pCore-HA wt) K7R; K96R
response (% input of PML co-IP): 0.1

— PMC10269885
